Assays:
[1] = molecular target: the molecule itself; test: cross-linking; nuclear fraction of HEK293T cells transfected with Flag-MORC2 (48 h); chemical cross-linking with 0.05% glutaraldehyde on ice for 5 min; immunoblotting
[2] = molecular target: the molecule itself; test: cross-linking; endogenous MORC2; total lysates (NP40 buffer) of MCF-7 and T47D cells treated with DMSO, 1 μM 17-AAG, AUY922, STA-9090 or 10 μM NB for 12 h; 0.05% glutaraldehyde on ice for 5 min; immunoblotting

B1: Full-length Flag-MORC2 (natural protein, human, UniProt Q9Y6X9-1 1-1032, looked up)
chain: MAFTNYSSLNRAQLTFEYLHTNSTTHEFLFGALAELVDNARDADATRIDIYAERREDLRGGFMLCFLDDGAGMDPSDAASVIQFGKSAKRTPESTQIGQYGNGLKSGSMRIGKDFILFTKKEDTMTCLFLSRTFHEEEGIDEVIVPLPTWNARTREPVTDNVEKFAIETELIYKYSPFRTEEEVMTQFMKIPGDSGTLVIIFNLKLMDNGEPELDIISNPRDIQMAETSPEGTKPERRSFRAYAAVLYIDPRMRIFIHGHKVQTKRLSCCLYKPRMYKYTSSRFKTRAEQEVKKAEHVARIAEEKAREAESKARTLEVRLGGDLTRDSRVMLRQVQNRAITLRREADVKKRIKEAKQRALKEPKELNFVFGVNIEHRDLDGMFIYNCSRLIKMYEKVGPQLEGGMACGGVVGVVDVPYLVLEPTHNKQDFADAKEYRHLLRAMGEHLAQYWKDIAIAQRGIIKFWDEFGYLSANWNQPPSSELRYKRRRAMEIPTTIQCDLCLKWRTLPFQLSSVEKDYPDTWVCSMNPDPEQDRCEASEQKQKVPLGTFRKDMKTQEEKQKQLTEKIRQQQEKLEALQKTTPIRSQADLKKLPLEVTTRPSTEEPVRRPQRPRSPPLPAVIRNAPSRPPSLPTPRPASQPRKAPVISSTPKLPALAAREEASTSRLLQPPEAPRKPANTLVKTASRPAPLVQQLSPSLLPNSKSPREVPSPKVIKTPVVKKTESPIKLSPATPSRKRSVAVSDEEEVEEEAERRKERCKRGRFVVKEEKKDSNELSDSAGEEDSADLKRAQKDKGLHVEVRVNREWYTGRVTAVEVGKHVVRWKVKFDYVPTDTTPRDRWVEKGSEDVRLMKPPSPEHQSLDTQQEGGEEEVGPVAQQAIAVAEPSTSECLRIEPDTTALSTNHETIDLLVQILRNCLRYFLPPSFPISKKQLSAMNSDELISFPLKEYFKQYEVGLQNLCNSYQSRADSRAKASEESLRTSERKLRETEEKLQKLRTNIVALLQKVQEDIDINTDDELDAYIEDLITKGD
notes: MORC2, human, full length (residues 1-1032); source: HEK293T, transfected, in cytosolic and nuclear fractions
stoichiometry N [1]: 2

B2: MORC family CW-type zinc finger 2 (MORC2) (natural protein, human (endogenous in MCF-7 and T47D), UniProt Q9Y6X9 1-1032, looked up)
chain: MAFTNYSSLNRAQLTFEYLHTNSTTHEFLFGALAELVDNARDADATRIDIYAERREDLRGGFMLCFLDDGAGMDPSDAASVIQFGKSAKRTPESTQIGQYGNGLKSGSMRIGKDFILFTKKEDTMTCLFLSRTFHEEEGIDEVIVPLPTWNARTREPVTDNVEKFAIETELIYKYSPFRTEEEVMTQFMKIPGDSGTLVIIFNLKLMDNGEPELDIISNPRDIQMAETSPEGTKPERRSFRAYAAVLYIDPRMRIFIHGHKVQTKRLSCCLYKPRMYKYTSSRFKTRAEQEVKKAEHVARIAEEKAREAESKARTLEVRLGGDLTRDSRVMLRQVQNRAITLRREADVKKRIKEAKQRALKEPKELNFVFGVNIEHRDLDGMFIYNCSRLIKMYEKVGPQLEGGMACGGVVGVVDVPYLVLEPTHNKQDFADAKEYRHLLRAMGEHLAQYWKDIAIAQRGIIKFWDEFGYLSANWNQPPSSELRYKRRRAMEIPTTIQCDLCLKWRTLPFQLSSVEKDYPDTWVCSMNPDPEQDRCEASEQKQKVPLGTFRKDMKTQEEKQKQLTEKIRQQQEKLEALQKTTPIRSQADLKKLPLEVTTRPSTEEPVRRPQRPRSPPLPAVIRNAPSRPPSLPTPRPASQPRKAPVISSTPKLPALAAREEASTSRLLQPPEAPRKPANTLVKTASRPAPLVQQLSPSLLPNSKSPREVPSPKVIKTPVVKKTESPIKLSPATPSRKRSVAVSDEEEVEEEAERRKERCKRGRFVVKEEKKDSNELSDSAGEEDSADLKRAQKDKGLHVEVRVNREWYTGRVTAVEVGKHVVRWKVKFDYVPTDTTPRDRWVEKGSEDVRLMKPPSPEHQSLDTQQEGGEEEVGPVAQQAIAVAEPSTSECLRIEPDTTALSTNHETIDLLVQILRNCLRYFLPPSFPISKKQLSAMNSDELISFPLKEYFKQYEVGLQNLCNSYQSRADSRAKASEESLRTSERKLRETEEKLQKLRTNIVALLQKVQEDIDINTDDELDAYIEDLITKGD
notes: MORC2, human, endogenous in breast cancer cells; source: endogenous, MCF-7 and T47D lysates
stoichiometry N [2]: 2

— article PMC9076019, “HSP90 N‐terminal inhibitors target oncoprotein MORC2 for autophagic degradation and suppress MORC2‐driven breast cancer progression” (Clinical and Translational Medicine, 2022)
